Experimental data published in the supplement of paper PMC7125110.
± gives the standard error. For some of these results: Fewer inactive variants are shown than the library holds.

B1: glmS ribozyme (parent)
chain: AUAAAAGCGCCAGAACUACAGAAAUGUAGUUGACGAGGAGGAGGUUUAUCGAAUUUUCGGCGGAUGCCUCCAAA

What was measured:
Details in all cases: with glucosamine-6-phosphate
[1] = variants of: B1; assay: kcat; higher = faster cleavage; RNA array
In short: (§1)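 On sequenced MiSeq chips, barcoded ribozyme variants were made in situ by E. coli RNA polymerase and followed at 37 °C through a hybridised Cy3 probe. Glucosamine-6-phosphate was flowed in at 40 μM to 10 mM in HEPES/KCl/Mg(OAc)2 buffer. Exponential fits to normalised per-tile medians gave kobs, and weighted Michaelis–Menten fits gave kcat and KM.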

[2] = variants of: B1; assay: KM; higher = weaker cofactor use; RNA array
In short: as §1

[3] = variants of: B1; assay: self-cleavage kobs at 10000 uM GlcN6P; higher = faster cleavage; RNA array
In short: as §1

[4] = variants of: B1; assay: self-cleavage kobs at 2500 uM GlcN6P; higher = faster cleavage; RNA array
In short: as §1

[5] = variants of: B1; assay: self-cleavage kobs at 640 uM GlcN6P; higher = faster cleavage; RNA array
In short: as §1

[6] = variants of: B1; assay: self-cleavage kobs at 160 uM GlcN6P; higher = faster cleavage; RNA array
In short: as §1

[7] = variants of: B1; assay: self-cleavage kobs at 40 uM GlcN6P; higher = faster cleavage; RNA array
In short: as §1

## U31G G59U
[1]
  kcat: 3.05e-05 ± 9.5e-07 s⁻¹
[2]
  KM: 511 ± 160 µM
[3]
  self-cleavage kobs at 10000 uM GlcN6P: 2.88e-05 ± 1e-05 s⁻¹

## U31C G32C
[1]
  kcat: 0.000493 ± 0.00011 s⁻¹
[2]
  KM: 4480 ± 2100 µM
[4]
  self-cleavage kobs at 2500 uM GlcN6P: 0.00017 ± 2.6e-05 s⁻¹
[3]
  self-cleavage kobs at 10000 uM GlcN6P: 0.000344 ± 3.5e-05 s⁻¹

## A33C G41U
[1]
  kcat: < 1e-05 s⁻¹
[5]
  self-cleavage kobs at 640 uM GlcN6P: < 1e-05 s⁻¹

## G32A U55C
[1]
  kcat: 0.00196 ± 0.00036 s⁻¹
[2]
  KM: 2790 ± 760 µM
[6]
  self-cleavage kobs at 160 uM GlcN6P: 9.47e-05 ± 1.6e-05 s⁻¹
[5]
  self-cleavage kobs at 640 uM GlcN6P: 0.000403 ± 4.8e-05 s⁻¹
[4]
  self-cleavage kobs at 2500 uM GlcN6P: 0.00122 ± 0.0002 s⁻¹
[3]
  self-cleavage kobs at 10000 uM GlcN6P: 0.00143 ± 0.00018 s⁻¹

## U31C U47G
[1]
  kcat: 0.000887 ± 0.00023 s⁻¹
[2]
  KM: 1440 ± 640 µM
[7]
  self-cleavage kobs at 40 uM GlcN6P: 3.36e-05 ± 9.1e-06 s⁻¹
[6]
  self-cleavage kobs at 160 uM GlcN6P: 8.85e-05 ± 1.5e-05 s⁻¹
[5]
  self-cleavage kobs at 640 uM GlcN6P: 0.000292 ± 4.5e-05 s⁻¹
[4]
  self-cleavage kobs at 2500 uM GlcN6P: 0.000426 ± 7e-05 s⁻¹
[3]
  self-cleavage kobs at 10000 uM GlcN6P: 0.00102 ± 0.00013 s⁻¹

## U31C U65G
[1]
  kcat: 0.0016 ± 0.00034 s⁻¹
[2]
  KM: 5250 ± 1700 µM
[5]
  self-cleavage kobs at 640 uM GlcN6P: 0.000198 ± 2.5e-05 s⁻¹
[4]
  self-cleavage kobs at 2500 uM GlcN6P: 0.000465 ± 7.2e-05 s⁻¹
[3]
  self-cleavage kobs at 10000 uM GlcN6P: 0.00108 ± 0.00013 s⁻¹

## U31G G59A C70G
[1]
  kcat: 3.81e-05 ± 8.1e-06 s⁻¹
[4]
  self-cleavage kobs at 2500 uM GlcN6P: 3.86e-05 ± 1.5e-05 s⁻¹

## G32C U69C
[1]
  kcat: 3.02e-05 ± 3.3e-06 s⁻¹
[5]
  self-cleavage kobs at 640 uM GlcN6P: 3.47e-05 ± 1.7e-05 s⁻¹
[4]
  self-cleavage kobs at 2500 uM GlcN6P: 3.15e-05 ± 1.3e-05 s⁻¹
[3]
  self-cleavage kobs at 10000 uM GlcN6P: 2.58e-05 ± 1.2e-05 s⁻¹

## G32U U55G
[1]
  kcat: 0.000798 ± 0.0002 s⁻¹
[2]
  KM: 3110 ± 1400 µM
[5]
  self-cleavage kobs at 640 uM GlcN6P: 0.000151 ± 2.5e-05 s⁻¹
[4]
  self-cleavage kobs at 2500 uM GlcN6P: 0.000274 ± 6.5e-05 s⁻¹
[3]
  self-cleavage kobs at 10000 uM GlcN6P: 0.000652 ± 9e-05 s⁻¹

## G32U U47C
[1]
  kcat: 0.000177 ± 4.1e-05 s⁻¹
[2]
  KM: 7840 ± 3400 µM
[4]
  self-cleavage kobs at 2500 uM GlcN6P: 4.27e-05 ± 1.2e-05 s⁻¹
[3]
  self-cleavage kobs at 10000 uM GlcN6P: 9.94e-05 ± 1.4e-05 s⁻¹

## G32U U47G
[1]
  kcat: 0.000502 ± 8.1e-05 s⁻¹
[2]
  KM: 4700 ± 1400 µM
[5]
  self-cleavage kobs at 640 uM GlcN6P: 5.12e-05 ± 1.7e-05 s⁻¹
[4]
  self-cleavage kobs at 2500 uM GlcN6P: 0.000189 ± 3.3e-05 s⁻¹
[3]
  self-cleavage kobs at 10000 uM GlcN6P: 0.000336 ± 4.6e-05 s⁻¹

## U31G C70G
[1]
  kcat: 0.000132 ± 1.8e-05 s⁻¹
[2]
  KM: 595 ± 260 µM
[6]
  self-cleavage kobs at 160 uM GlcN6P: 5.51e-05 ± 2.2e-05 s⁻¹
[5]
  self-cleavage kobs at 640 uM GlcN6P: 6.05e-05 ± 1.2e-05 s⁻¹
[4]
  self-cleavage kobs at 2500 uM GlcN6P: 0.000118 ± 3.1e-05 s⁻¹
[3]
  self-cleavage kobs at 10000 uM GlcN6P: 0.000126 ± 1.8e-05 s⁻¹

## U31C G44U C67G
[1]
  kcat: 0.00162 ± 0.00031 s⁻¹
[2]
  KM: 2430 ± 830 µM
[5]
  self-cleavage kobs at 640 uM GlcN6P: 0.00032 ± 7.1e-05 s⁻¹
[4]
  self-cleavage kobs at 2500 uM GlcN6P: 0.0011 ± 0.00027 s⁻¹
[3]
  self-cleavage kobs at 10000 uM GlcN6P: 0.00124 ± 0.00024 s⁻¹

## U31C C68U
[1]
  kcat: 0.000617 ± 9.3e-05 s⁻¹
[2]
  KM: 1690 ± 450 µM
[7]
  self-cleavage kobs at 40 uM GlcN6P: 3.14e-05 ± 9.7e-06 s⁻¹
[6]
  self-cleavage kobs at 160 uM GlcN6P: 5.34e-05 ± 8.6e-06 s⁻¹
[5]
  self-cleavage kobs at 640 uM GlcN6P: 0.000175 ± 1.2e-05 s⁻¹
[4]
  self-cleavage kobs at 2500 uM GlcN6P: 0.000321 ± 2.9e-05 s⁻¹
[3]
  self-cleavage kobs at 10000 uM GlcN6P: 0.000583 ± 4.8e-05 s⁻¹

## G32A U55A C68A
[1]
  kcat: 3.25e-05 ± 3.5e-06 s⁻¹

## U31A U47C
[1]
  kcat: 0.0025 ± 0.0005 s⁻¹
[2]
  KM: 3290 ± 980 µM
[7]
  self-cleavage kobs at 40 uM GlcN6P: 3.34e-05 ± 1.3e-05 s⁻¹
[6]
  self-cleavage kobs at 160 uM GlcN6P: 9.34e-05 ± 2.4e-05 s⁻¹
[5]
  self-cleavage kobs at 640 uM GlcN6P: 0.000511 ± 0.00012 s⁻¹
[4]
  self-cleavage kobs at 2500 uM GlcN6P: 0.00117 ± 0.00017 s⁻¹
[3]
  self-cleavage kobs at 10000 uM GlcN6P: 0.00174 ± 0.00034 s⁻¹
